# T1: matriptase-3 (TMPRSS7) over-expressed in HEK293T cells (human, UniProt Q7RTY8 1-843)
# T1 sequence: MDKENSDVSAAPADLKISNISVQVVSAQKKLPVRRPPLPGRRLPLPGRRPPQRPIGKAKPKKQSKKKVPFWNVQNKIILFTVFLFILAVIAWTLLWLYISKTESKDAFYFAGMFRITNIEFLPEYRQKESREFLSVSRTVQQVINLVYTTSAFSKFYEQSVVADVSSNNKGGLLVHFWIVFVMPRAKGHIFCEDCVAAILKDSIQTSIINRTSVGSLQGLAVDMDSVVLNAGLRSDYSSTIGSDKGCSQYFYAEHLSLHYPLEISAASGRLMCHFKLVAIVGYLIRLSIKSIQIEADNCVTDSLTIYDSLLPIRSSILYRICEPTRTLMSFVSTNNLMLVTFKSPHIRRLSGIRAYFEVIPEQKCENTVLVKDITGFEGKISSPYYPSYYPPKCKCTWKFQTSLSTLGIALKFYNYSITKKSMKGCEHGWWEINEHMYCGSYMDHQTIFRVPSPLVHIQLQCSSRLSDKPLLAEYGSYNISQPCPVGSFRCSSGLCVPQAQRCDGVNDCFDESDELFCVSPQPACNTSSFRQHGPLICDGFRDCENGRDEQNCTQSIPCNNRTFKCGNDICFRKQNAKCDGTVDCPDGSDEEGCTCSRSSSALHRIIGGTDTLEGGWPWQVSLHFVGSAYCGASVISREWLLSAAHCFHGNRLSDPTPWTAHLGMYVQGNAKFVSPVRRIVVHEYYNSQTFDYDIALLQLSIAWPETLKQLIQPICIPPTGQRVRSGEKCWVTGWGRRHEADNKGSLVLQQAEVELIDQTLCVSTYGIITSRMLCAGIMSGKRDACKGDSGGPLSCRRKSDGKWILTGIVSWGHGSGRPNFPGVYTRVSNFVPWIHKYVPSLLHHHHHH
# T2: TMPRSS6 expressed in transfected HepG2 cells (HAMP-luciferase reporter assay) (UniProt Q8IU80 1-811, limits assumed)
# T2 sequence (looked up): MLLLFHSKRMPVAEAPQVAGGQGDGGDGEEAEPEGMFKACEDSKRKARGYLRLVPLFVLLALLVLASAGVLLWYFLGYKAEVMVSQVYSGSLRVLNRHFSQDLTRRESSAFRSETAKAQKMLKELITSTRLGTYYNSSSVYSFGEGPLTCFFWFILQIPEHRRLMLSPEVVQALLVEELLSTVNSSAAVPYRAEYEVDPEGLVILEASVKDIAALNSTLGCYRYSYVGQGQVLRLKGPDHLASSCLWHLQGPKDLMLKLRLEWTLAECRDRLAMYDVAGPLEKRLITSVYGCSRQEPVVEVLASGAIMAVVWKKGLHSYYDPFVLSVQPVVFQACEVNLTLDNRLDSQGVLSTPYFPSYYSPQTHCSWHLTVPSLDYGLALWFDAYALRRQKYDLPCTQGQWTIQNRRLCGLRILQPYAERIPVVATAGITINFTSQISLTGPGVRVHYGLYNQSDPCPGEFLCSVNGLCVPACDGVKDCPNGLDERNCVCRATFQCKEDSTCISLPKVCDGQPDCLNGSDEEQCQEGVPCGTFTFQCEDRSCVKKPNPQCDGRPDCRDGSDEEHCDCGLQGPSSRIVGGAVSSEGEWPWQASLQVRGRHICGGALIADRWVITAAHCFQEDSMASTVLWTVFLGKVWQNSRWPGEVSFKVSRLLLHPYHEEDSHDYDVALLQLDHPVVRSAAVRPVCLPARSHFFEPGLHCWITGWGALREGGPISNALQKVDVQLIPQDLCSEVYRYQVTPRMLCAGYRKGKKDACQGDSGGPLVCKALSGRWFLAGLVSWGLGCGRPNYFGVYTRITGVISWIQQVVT
# B1: MWTx-002 anti-TMPRSS6 antibody (antibody, mouse IgG2b, kappa, V domains shown)
# VH: EVQLQQSGAELVKPGASVKLSCTASGFNIKDYYIHWVKERTEQGLEWFGRIDPEDGESEYAPKFQGKATLTADTSSNTAYLQLSSLTSEDTAVYYCTRGDSMMVTYFDYWGQGTTLTVSS
# VL: DIVMTQSHKFMSTSVGDRVSITCKASQDVSTAVAWYQQKPGQSPKLLIYWAFTRHTGVPDRFTSTGSGTDYALTISSVQAEDLALYYCQQHYRSPWTFGGGTKLEIKR
# notes: Mouse monoclonal antibody from a hybridoma (ATCC PTA-126760)
# B2: hzMWTx-003Var anti-TMPRSS6 antibody (antibody, human IgG1, kappa, L234A L235A, V domains shown)
# VH: QVQLVQSGAEVKKPGASVKVSCKASGFNIEDYYMHWVRQAPGQRLEWMGRIDPEDAETTYSPKFQGRVTIIPDTSANTAYMELSSLRSEDTAVYYCARSIYLDPMDYWGQGTLVTVSS
# VL: DIQMTQSPKSLSASVGDRVTITCRASQDVTTALAWYQQKPGQSPKLLIYWATTRHSGVPSRFSGSGSGTDFTLTISSLQPEDFATYYCQQHYSTPYTFGQGTKLEIKR
# notes: Humanized variant of MWTx-003, human IgG1/kappa
# B3: hzMWTx-002Var anti-TMPRSS6 antibody (antibody, human IgG1, kappa, N297A, V domains shown)
# VH: EVQLVQSGAEVKKPGASVKVSCKASGFNIKDYYIHWVRQATGQGLEWMGRIDPEDAESEYAPKFQGRVTITADTSTDTAYMELSSLRSEDTAVYYCTRGDSMMVTYFDYWGQGTLVTVSS
# VL: DIQMTQSPSSLSASVGDRVTITCKASQDVSTAVAWYQQKPGKAPKLLIYWAFTRHTGVPSRFSGSGSGTDYALTISSLQPEDFATYYCQQHYRSPWTFGGGTKVEIKR
# notes: Humanized variant of MWTx-002, human IgG1/kappa
# B4: MWTx-003 anti-TMPRSS6 antibody (antibody, mouse IgG2b, kappa, V domains shown)
# VH: EVQLQQSGAELVKPGASVKLSCTASGFNIEDYYIHWVKERTEQGLEWIGRIDPEDGETTYAPQFQGKATIIPDTSSNTAYMQLSSLTSEDAAVYYCARSIYLDPMDYWGQGTSVTVSS
# VL: DIVMTQSHKFMSTSVGDRVSITCKASQDVTTAVAWYQQKPGQSPKILIYWATTRHTGVPDRFTGSISGTTYILTISSVQAEDLALYYCQQHYSTPYTFGGGTKLEIKR
# notes: Mouse monoclonal antibody from a hybridoma (ATCC PTA-126761); also called r4K12B (recombinantly expressed version, same HC and LC)
# B5: MWTx-001 anti-TMPRSS6 antibody (antibody, mouse IgG2a, kappa, V domains shown)
# VH: QVQLQQPGAELAKPGASVKMSCKASGYTFTSYWITWVKQRPGQDLEWIGNIYPGSGSTYYNEKFKSKATLTVDTSSRTAYMQLSSLTSADSAVYYCAPYDSDYAMDYWGQGTSVTVSS
# VL: DIKMTQSPSSMYASLGERVTITCKASQDINNYLSWFQQKPGKSPKTLIYRANRLVDGVPSRVSGSGSGQDYSLTISSLEYEDVGIYFCLQYDEFPLTFGAGTKLELKR
# notes: Mouse monoclonal antibody from a hybridoma (ATCC PTA-126759)
# B6: hzMWTx-001Var anti-TMPRSS6 antibody (antibody, human IgG1, kappa, N297A, V domains shown)
# VH: EVQLVQSGAEVKKPGASVKVSCKASGYTFTSYWITWVRQAPGQRLEWIGNIYPGSGSTYYNEKFKSKATITRDTSSRTAYMELSSLRSEDTAVYYCAPYDADYAMDYWGQGTLVTVSS
# VL: DIQMTQSPSSLSASVGDRVTITCKASQDISNYLSWFQQKPGKAPKLLIYRANRLVEGVPSRFSGSGSGTDFTLTISSLQPEDFATYFCLQYDEFPLTFGGGTKVEIKR
# notes: Humanized variant of MWTx-001, human IgG1/kappa
# Target: T1, matriptase-3 (TMPRSS7) over-expressed …
# Experiment: FACS on permeabilized HEK293T cells over-expressing TMPRSS7
# Text: To determine if anti-TMPRSS6 antibodies bind to homologous matriptases, HEK293T cells over-expressing matriptase (ST14) (SEQ ID NO: 100) (FIGS. 5B, 5E, 5H, 5K, 5N, 5Q), and HEK293T cells over-expressing matriptase-3 (TMPRSS7) (SEQ ID NO: 101) (FIGS. 5C, 5F, 5I, 5L, 5O, 5R) were collected (generated in house). HEK293T cells stably expressing human TMPRSS6 (matriptase-2) (SEQ ID NO:97) (generated by LakePharma Inc as described above, FIGS. 5A, 5D, 5G, 5J, 5M, 5P) were used as a positive control and HEK293T cells (FIGS. 5A-5R) were used as a negative control (as described above). Cells were blocked and permeabilized with dPBS + 3% BSA + 0.1% Tween-20 before incubation with various anti-TMPRSS6 antibodies diluted in dPBS + 3% BSA + 0.1% Tween-20. Cells were incubated with anti-TMPRSS6 antibodies and their humanized variants at a concentration of roughly 1 µg/ml for 1 hr. After incubation, cells were washed with dPBS and incubated with goat anti-mouse IgG conjugated with AlexaFluor-488 (Invitrogen, FIGS. 5A-5I) or goat anti-human IgG conjugated with Allophycocyanin (APC) (Jackson Immuno Research, FIGS. 5J-5R) as a 2° antibody. At last, cells were washed with dPBS and re-suspended with dPBS + 1 mM EDTA, and then subjected to FACS analysis using a NOVOCYTE® Flow Cytometer. Bound antibody was determined by excitation at 488 nm and measurement of emission (FITC-A) at 530 nm (FIGS. 5A-5I) or by excitation at 640 nm and measurement of emission (APC-A) at 675 nm (FIGS. 5J-5R). Results for these assays are shown in histogram plots in FIGS. 5A-5R.
row,binding result,Binder
1,no binding (tested: roughly 1 µg/ml),B1
2,no binding (tested: roughly 1 µg/ml),B2
3,no binding (tested: roughly 1 µg/ml),B3
4,no binding (tested: roughly 1 µg/ml),B4
5,no binding (tested: roughly 1 µg/ml),B5
6,no binding (tested: roughly 1 µg/ml),B6

# Target: T2, TMPRSS6 expressed in transfected HepG2 …
# Experiment: cell-based or functional assay
row,"EC50, HAMP promoter activity (HAMP-luciferase reporter assay in HepG2 cells)",Binder
1,1 µg/mL,B1
2,0.3 µg/mL,B2
3,0.3 µg/mL,B3
4,2 µg/mL,B4
5,3 µg/mL,B5
6,0.8 µg/mL,B6
